Test results from patent US12618845B2, “Methods and compositions for protein sequencing” (Quantum-Si Incorporated, priority 2018, dated 2026).
Where a chain is given by its changes, count along the chain named. Names may count otherwise. Like-named read-outs stand apart in the source and are kept apart here.

Experiments:
[1] = test system: amino acid at a terminal position of a polypeptide; conditions: amino acid identity at a terminal position of a polypeptide; phospho-Y also at an internal position; cited from earlier work
peptide substrates = type: biochemical

B1: H. sapiens Fyn SH2 domain: amino acid recognition protein, SEQ ID NO: 22 (protein, listed as Homo sapiens)
chain: MGAMDSIQAEEWYFGKLGRKDAERQLLSFGNPRGTFLIRESETTKGAYSLSIRDWDDMKGDHVKHYKIRKLDNGGYYITTRAQFETLQQLVQHYSERAAGLSSRLVVPSHK
- Binding Pref. [1]: phospho-Y

B2: Agrobacterium tumifaciens ClpS2: amino acid recognition protein, SEQ ID NO: 2 (protein, listed as Agrobacterium tumifaciens)
chain: MSDSPVDLKPKPKVKPKLERPKLYKVMLLNDDYTPREFVTVVLKAVFRMSEDTGRRVMMTAHRFGSAVVVVCERDIAETKAKEATDLGKEAGFPLMFTTEPEE
- Binding Pref. [1]: F, W, Y

B3: Agrobacterium tumifaciens ClpS2 C71S: amino acid recognition protein, SEQ ID NO: 3 (protein, listed as Agrobacterium tumifaciens)
chain: B2 chain with C72S
- Binding Pref. [1]: F, W, Y

B4: Saccharomyces cerevisiae GID10: amino acid recognition protein, SEQ ID NO: 31 (protein, listed as Saccharomyces cerevisiae)
chain: MTSLNIMGRKFILERAKRNDNIEEIYTSAYVSLPSSTDTRLPHFKAKEEDCDVYEEGTNLVGKNAKYTYRSLGRHLDFLRPGLRFGGSQSSKYTYYTVEVKIDTVNLPLYKDSRSLDPHVTGTFTIKNLTPVLDKVVTLFEGYVINYNQFPLCSLHWPAEETLDPYMAQRESDCSHWKRFGHFGSDNWSLTERNFGQYNHESAEFMNQRYIYLKWKERFLLDDEEQENQMLDDNHHLEGASFEGFYYVCLDQLTGSVEGYYYHPACELFQKLELVPTNCDALNTYSSGFEIA
- Binding Pref. [1]: P, M, V

B5: UBR-box domain from Homo sapiens UBR1: amino acid recognition protein, SEQ ID NO: 32 (protein, listed as Homo sapiens)
chain: MGPLGSLCGRVFKSGETTYSCRDCAIDPTCVLCMDCFQDSVHKNHRYKMHTSTGGGFCDCGDTEAWKTGPFCVNHEP
- Binding Pref. [1]: K, R, H

B6: UBR-box domain from Homo sapiens UBR2: amino acid recognition protein, SEQ ID NO: 33 (protein, listed as Homo sapiens)
chain: MGPLGSLCGRVFKVGEPTYSCRDCAVDPTCVLCMECFLGSIHRDHRYRMTTSGGGGFCDCGDTEAWKEGPYCQKHE
- Binding Pref. [1]: K, R, H

B7: Agrobacterium tumifaciens ClpS2 variant 1 C72S: amino acid recognition protein, SEQ ID NO: 5 (protein, listed as Agrobacterium tumifaciens)
chain: B2 chain with R36M, E37S, C72S
- Binding Pref. [1]: F, W, Y

B8: Agrobacterium tumifaciens ClpS1 C7S: amino acid recognition protein, SEQ ID NO: 6 (protein, listed as Agrobacterium tumifaciens)
chain: MIAEPISMQGEGDGEDGGTNRGTSVITRVKPKTKRPNLYRVLLLNDDYTPMEFVIHILERFFQKDREAATRIMLHVHQHGVGECGVFTYEVAETKVSQVMDFARQHQHPLQCVMEKK
- Binding Pref. [1]: F, W, Y, L

B9: NPEPPS: puromycin-sensitive aminopeptidase, SEQ ID NO: 56 (protein)
chain: MWLAAAAPSLARRLLFLGPPPPPLLLLVFSRSSRRRLHSLGLAAMPEKRPFERLPADVSPINYSLCLKPDLLDFTFEGKLEAAAQVRQATNQIVMNCADIDIITASYAPEGDEEIHATGFNYQNEDEKVTLSFPSTLQTGTGTLKIDFVGELNDKMKGFYRSKYTTPSGEVRYAAVTQFEATDARRAFPCWDEPAIKATFDISLVVPKDRVALSNMNVIDRKPYPDDENLVEVKFARTPVMSTYLVAFVVGEYDFVETRSKDGVCVRVYTPVGKAEQGKFALEVAAKTLPFYKDYFNVPYPLPKIDLIAIADFAAGAMENWGLVTYRETALLIDPKNSCSSSRQWVALVVGHELAHQWFGNLVTMEWWTHLWLNEGFASWIEYLCVDHCFPEYDIWTQFVSADYTRAQELDALDNSHPIEVSVGHPSEVDEIFDAISYSKGASVIRMLHDYIGDKDFKKGMNMYLTKFQQKNAATEDLWESLENASGKPIAAVMNTWTKQMGFPLIYVEAEQVEDDRLLRLSQKKFCAGGSYVGEDCPQWMVPITISTSEDPNQAKLKILMDKPEMNVVLKNVKPDQWVKLNLGTVGFYRTQYSSAMLESLLPGIRDLSLPPVDRLGLQNDLFSLARAGIISTVEVLKVMEAFVNEPNYTVWSDLSCNLGILSTLLSHTDFYEEIQEFVKDVFSPIGERLGWDPKPGEGHLDALLRGLVLGKLGKAGHKATLEEARRRFKDHVEGKQILSADLRSPVYLTVLKHGDGTTLDIMLKLHKQADMQEEKNRIERVLGATLLPDLIQKVLTFALSEEVRPQDTVSVIGGVAGGSKHGRKAAWKFIKDNWEELYNRYQGGFLISRLIKLSVEGFAVDKMAGEVKAFFESHPAPSAERTIQQCCENILLNAAWLKRDAESIHQYLLQRKASPPTV
modifications: Puromycin-sensitive aminopeptidase
- HPLC Assay Conv (peptide substrates; substrate LeuTyr 5 mM, 700 nM enzyme, 25 mM HEPES, 1 mM Mg(OAc)2, 1 mM DTT, pH 7.5, 37° C./1 hr): 5%

B10: V. anguillarum APN (protein)
chain: MEEKVWISIGGDATQTALRSGAQSLLPENLINQTSVWVGQVPVSELATLSHEMHENHQRCGGYMVHPSAQSAMSVSAMPLNLNAFSAPEITQQTTVNAWLPSVSAQQITSTITTLTQFKNRFYTTSTGAQASNWIADHWRSLSASLPASKVEQITHSGYNQKSVMLTITGSEKPDEWVVIGGHLDSTLGSRTNESSIAPGADDDASGIAGVTEIIRLLSEQNFRPKRSIAFMAYAAEEVGLRGSQDLANRFKAEGKKVMSVMQLDMTNYQGSREDIVFITDYTDSNFTQYLTQLLDEYLPSLTYGFDTCGYACSDHASWHAVGYPAAMPFESKFNDYNPNIHSPQDTLQNSDPTGFHAVKFTKLGLAYVVEMGNASTPPTPSNQLKNGVPVNGLSASRNSKTWYQFELQEAGNLSIVLSGGSGDADLYVKYQTDADLQQYDCRPYRSGNNETCQFSNAQPGRYSILLHGYNNYSNASLVANAQ
- HPLC Assay Conv (peptide substrates; substrate AAPAAP{LYSN3}NH2 (SEQ ID NO: 98), 1 mM peptide, 2 μM enzyme, 2.5 mM ZnCl2, 25 mM Tris pH 8.0, 30° C./1 hr): 50%
- HPLC Assay Conv (peptide substrates; substrate KKPKKP{LYSN3}NH2 (SEQ ID NO: 100), 1 mM peptide, 2 μM enzyme, 2.5 mM ZnCl2, 25 mM Tris pH 8.0, 30° C./1 hr): <5%
- HPLC Assay Conv (peptide substrates; substrate RRPRRP{LYSN3}NH2 (SEQ ID NO: 96), 1 mM peptide, 2 μM enzyme, 2.5 mM ZnCl2, 25 mM Tris pH 8.0, 30° C./1 hr): >90%

B11: VPr pAzF (protein)
chain: MPPITQQATVTAWLPQVDASQITGTISSLESFTNRFYTTTSGAQASDWIASEWQALSASLPNASVKQVSHSGYNQKSVVMTITGSEAPDEWIVIGGHLDSTIGSHTNEQSVAPGADDDASGIAAVTEVIRVLSENNFQPKRSIAFMAYAAEEVGLRGSQDLANQYKSEGKNVVSALQLDMTNYKGSAQDVVFITDYTDSNFTQYLTQLMDEYLPSLTYGFDTCGYACSDHASWHNAGYPAAMPFESKFNDYNPRIHTTQDTLANSDPTGSHAKKFTQLGLAYAIEMGSATGDTPTPGNQ
modifications: non-natural residues
- HPLC Assay Conv (peptide substrates; substrate […]{LYSN3}NH2 (SEQ ID NO: 107), 200 μM Peptide, 4 μM enzyme, 10 mM MgCl2, 50 mM MOPS pH 8.0, 37° C./1 hr): 96%

B12: P. falciparum M1 (protein, listed as Plasmodium falciparum)
chain: PKIHYRKDYKPSGFIINQVTLNINIHDQETIVRSVLDMDISKHNVGEDLVFDGVGLKINEISINNKKLVEGEEYTYDNEFLTIFSKFVPKSKFAFSSEVIIHPETNYALTGLYKSKNIIVSQCEATGFRRITFFIDRPDMMAKYDVTVTADKEKYPVLLSNGDKVNEFEIPGGRHGARFNDPPLKPCYLFAVVAGDLKHLSATYITKYTKKKVELYVFSEEKYVSKLQWALECLKKSMAFDEDYFGLEYDLSRLNLVAVSDFNVGAMENKGLNIFNANSLLASKKNSIDFSYARILTVVGHEYFHQYTGNRVTLRDWFQLTLKEGLTVHRENLFSEEMTKTVTTRLSHVDLLRSVQFLEDSSPLSHPIRPESYVSMENFYTTTVYDKGSEVMRMYLTILGEEYYKKGFDIYIKKNDGNTATCEDFNYAMEQAYKMKKADNSANLNQYLLWFSQSGTPHVSFKYNYDAEKKQYSIHVNQYTKPDENQKEKKPLFIPISVGLINPENGKEMISQTTLELTKESDTFVFNNIAVKPIPSLFRGFSAPVYIEDQLTDEERILLLKYDSDAFVRYNSCTNIYMKQILMNYNEFLKAKNEKLESFQLTPVNAQFIDAIKYLLEDPHADAGFKSYIVSLPQDRYIINFVSNLDTDVLADTKEYIYKQIGDKLNDVYYKMFKSLEAKADDLTYFNDESHVDFDQMNMRTLRNTLLSLLSKAQYPNILNEIIEHSKSPYPSNWLTSLSVSAYFDKYFELYDKTYKLSKDDELLLQEWLKTVSRSDRKDIYEILKKLENEVLKDSKNPNDIRAVYLPFTNNLRRFHDISGKGYKLIAEVITKTDKFNPMVATQLCEPFKLWNKLDTKRQELMLNEMNTMLQEPQISNNLKEYLLRLTNK
- HPLC Assay Conv (peptide substrates; substrate MetTyr, 1 mM peptide, 1 mM enzyme, 2.5 mM ZnCl2 25 mM Tris pH 8.0, 30° C./1 hr): 7%

B13: P. horikoshii Tet (protein)
chain: MEVRNMVDYELLKKVVEAPGVSGYEFLGIRDVVIEEIKDYVDEVKVDKLGNVIAHKKGEGPKVMIAAHMDQIGLMVTHIEKNGFLRVAPIGGVDPKTLIAQRFKVWIDKGKFIYGVGASVPPHIQKPEDRKKAPDWDQIFIDIGAESKEEAEDMGVKIGTVITWDGRLERLGKHRFVSIAFDDRIAVYTILEVAKQLKDAKADVYFVATVQEEVGLRGARTSAFGIEPDYGFAIDVTIAADIPGTPEHKQVTHLGKGTAIKIMDRSVICHPTIVRWLEELAKKHEIPYQLEILLGGGTDAGAIHLTKAGVPTGALSVPARYIHSNTEVVDERDVDATVELMTKALENIHELKI
- HPLC Assay Conv (peptide substrates; substrate AAPAAP{LYSN3}NH2 (SEQ ID NO: 90), 1 mM peptide, 1 mM enzyme, 2.5 mM ZnCl2, 25 mM Tris pH 8.0, 70° C./1 hr): 100%
- HPLC Assay Conv (peptide substrates; substrate DDMDDM{LYSN3}NH2 (SEQ ID NO: 72), 1 mM peptide, 1 mM enzyme, 2.5 mM ZnCl2, 25 mM Tris pH 8.0, 70° C./1 hr): 60%
- HPLC Assay Conv (peptide substrates; substrate FFPFFP{LYSN3}NH2 (SEQ ID NO: 94), 1 mM peptide, 1 mM enzyme, 2.5 mM ZnCl2, 25 mM Tris pH 8.0, 70° C./1 hr): 100%
- HPLC Assay Conv (peptide substrates; substrate YYPYYP{LYSN3}NH2 (SEQ ID NO: 92), 1 mM peptide, 1 mM enzyme, 2.5 mM ZnCl2, 25 mM Tris pH 8.0, 70° C./1 hr): 100%
